From paper PMC11872457 (2025)

Target: T1, SARS-CoV-2 replicase polyprotein 1ab (CoV-YL8; identical in HKU1 and NL63) peptide on HLA-B*35:03 (human)
T1 peptide: YPDPSRIL
Assay: cytokine release

B1: CoV-YL8 TCR (TCR)
alpha TRAV1-1 TRAJ4 CDR3: CAVRGISGGYNKLIF
beta TRBV19 TRBJ1-6 CDR3: CASSIEGSYNSPLHF
B1: recognises.
